How the values were obtained:
[1] = target: isolated K287C/K294C αL I-domain (V130-A338) expressed on K562 cells by the PDGF receptor transmembrane domain (human) (UniProt P20701); assay: flow cytometry on K562 transfectants, panel 'K287C/K294C I-domain (#1)'
[2] = target: isolated K287C/K294C αL I-domain (V130-A338) expressed on K562 cells by the PDGF receptor transmembrane domain (human) (UniProt P20701); assay: flow cytometry on K562 transfectants, panel 'K287C/K294C I-domain (#2)'
[3] = target: isolated L289C/K294C αL I-domain (V130-A338) expressed on K562 cells by the PDGF receptor transmembrane domain (human) (UniProt P20701); assay: flow cytometry on K562 transfectants, panel 'L289C/K294C I-domain (#2)'
Chain of isolated L289C/K294C αL I-domain (V130-A338) expressed on K562 cells by the PDGF receptor transmembrane domain (human) (P20701 155-363 L314C/K319C limits assumed): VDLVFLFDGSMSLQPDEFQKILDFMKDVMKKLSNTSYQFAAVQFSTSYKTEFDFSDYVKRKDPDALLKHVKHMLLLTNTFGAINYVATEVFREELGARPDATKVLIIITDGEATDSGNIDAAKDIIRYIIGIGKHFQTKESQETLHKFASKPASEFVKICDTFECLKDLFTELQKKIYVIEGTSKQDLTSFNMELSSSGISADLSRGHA

[4] = target: wild-type LFA-1 (αL/β2 complex) expressed on 293T or K562 transfectants (human) (UniProt P05107); assay: flow cytometry on K562 transfectants, panel 'intact LFA-1'
[5] = target: LFA-1 mutant K287C/K294C (αL K287C/K294C with β2) on 293T or K562 transfectants (human) (UniProt P05107); assay: flow cytometry, K562, normalized to TS2/4
[6] = target: LFA-1 mutant L289C/K294C (αL L289C/K294C with β2) on 293T or K562 transfectants (human) (UniProt P05107); assay: flow cytometry, K562, normalized to TS2/4
[7] = target: LFA-1 single cysteine substitution mutant K287C on 293T transfectants (human) (UniProt P05107); assay: flow cytometry, 293T, normalized to TS2/4
[8] = target: LFA-1 mutant K287C/K294C (αL K287C/K294C with β2) on 293T or K562 transfectants (human) (UniProt P05107); assay: flow cytometry, 293T, normalized to TS2/4
[9] = target: LFA-1 single cysteine substitution mutant L289C on 293T transfectants (human) (UniProt P05107); assay: flow cytometry, 293T, normalized to TS2/4
[10] = target: LFA-1 single cysteine substitution mutant K294C on 293T transfectants (human) (UniProt P05107); assay: flow cytometry, 293T, normalized to TS2/4
[11] = target: LFA-1 mutant L289C/K294C (αL L289C/K294C with β2) on 293T or K562 transfectants (human) (UniProt P05107); assay: flow cytometry, 293T, normalized to TS2/4
[12] = target: isolated wild-type αL I-domain (V130-A338) expressed on K562 cells by the PDGF receptor transmembrane domain (human); assay: flow cytometry on K562 transfectants, panel 'WT I-domain (#1)'
Chain of isolated wild-type αL I-domain (V130-A338) expressed on K562 cells by the PDGF receptor transmembrane domain (human) (P09619 other isoform, or with tags, fused parts or gaps): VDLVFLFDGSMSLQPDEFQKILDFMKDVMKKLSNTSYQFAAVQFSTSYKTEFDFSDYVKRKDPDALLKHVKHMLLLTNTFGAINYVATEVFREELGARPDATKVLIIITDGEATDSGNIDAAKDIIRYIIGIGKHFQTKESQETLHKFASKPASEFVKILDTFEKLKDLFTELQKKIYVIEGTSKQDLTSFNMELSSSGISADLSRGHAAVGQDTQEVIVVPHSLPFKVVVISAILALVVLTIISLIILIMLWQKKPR

[13] = target: isolated wild-type αL I-domain (V130-A338) expressed on K562 cells by the PDGF receptor transmembrane domain (human); assay: flow cytometry on K562 transfectants, panel 'WT I-domain (#2)'; nothing is printed after the point
[14] = target: isolated L289C/K294C αL I-domain (V130-A338) expressed on K562 cells by the PDGF receptor transmembrane domain (human) (UniProt P20701); assay: flow cytometry on K562 transfectants, panel 'L289C/K294C I-domain (#1)'
[15] = target: LFA-1 mutant K287C/K294C (αL K287C/K294C with β2) on 293T or K562 transfectants (human) (UniProt P05107); assay: flow cytometry, K562, normalized to TS1/22
[16] = target: wild-type LFA-1 (αL/β2 complex) expressed on 293T or K562 transfectants (human) (UniProt P05107); assay: flow cytometry, K562 WT (#22), ICAM-1-IgA 100 µg/ml, FITC anti-human IgA, taken after paragraph 201 as ICAM-1-IgA without CBRLFA-1/2; left column of this row, taken as no ICAM-1-IgA: 3.58
[17] = target: LFA-1 mutant K287C/K294C (αL K287C/K294C with β2) on 293T or K562 transfectants (human) (UniProt P05107); assay: flow cytometry, K562 K287C K294C (#7), ICAM-1-IgA 100 µg/ml, FITC anti-human IgA, taken after paragraph 201 as ICAM-1-IgA with CBRLFA-1/2 10 µg/ml; left column of this row, taken as no ICAM-1-IgA: 3.59
[18] = target: LFA-1 mutant L289C/K294C (αL L289C/K294C with β2) on 293T or K562 transfectants (human) (UniProt P05107); assay: flow cytometry, K562 L289C K294C (#6), ICAM-1-IgA 100 µg/ml, FITC anti-human IgA, taken after paragraph 201 as ICAM-1-IgA without CBRLFA-1/2; left column of this row, taken as no ICAM-1-IgA: 4.68
[19] = target: LFA-1 mutant L289C/K294C (αL L289C/K294C with β2) on 293T or K562 transfectants (human) (UniProt P05107); assay: flow cytometry, K562 L289C K294C (#6), ICAM-1-IgA 100 µg/ml, FITC anti-human IgA, taken after paragraph 201 as ICAM-1-IgA with CBRLFA-1/2 10 µg/ml; left column of this row, taken as no ICAM-1-IgA: 4.68
[20] = target: LFA-1 mutant K287C/K294C (αL K287C/K294C with β2) on 293T or K562 transfectants (human) (UniProt P05107); assay: flow cytometry, K562 K287C K294C (#7), ICAM-1-IgA 100 µg/ml, FITC anti-human IgA, taken after paragraph 201 as ICAM-1-IgA without CBRLFA-1/2; left column of this row, taken as no ICAM-1-IgA: 3.59
[21] = target: wild-type LFA-1 (αL/β2 complex) expressed on 293T or K562 transfectants (human) (UniProt P05107); assay: flow cytometry, K562 WT (#22), ICAM-1-IgA 100 µg/ml, FITC anti-human IgA, taken after paragraph 201 as ICAM-1-IgA with CBRLFA-1/2 10 µg/ml; left column of this row, taken as no ICAM-1-IgA: 3.58
[22] = target: Mac-1 mutant Q163C/Q309C (αM Q163C/Q309C with β2) on 293T or K562 transfectants (human) (UniProt P05107); assay: flow cytometry on K562 stable transfectants with intact Mac-1, row printed 'Q163/Q309C'
[23] = target: wild-type Mac-1 (αMβ2) on 293T or K562 transfectants (human) (UniProt P05107); assay: flow cytometry on K562 stable transfectants with intact Mac-1, row 'Wild-type'
[24] = target: Mac-1 mutant D294C/Q311C (with β2) on K562 transfectants (human) (UniProt P05107); assay: flow cytometry on K562 stable transfectants with intact Mac-1, row 'D294C/Q311C'

Chain of soluble ICAM-1-IgA chimera containing the 5 Ig domains of human ICAM-1 (P05362 28-480, stated change not applied): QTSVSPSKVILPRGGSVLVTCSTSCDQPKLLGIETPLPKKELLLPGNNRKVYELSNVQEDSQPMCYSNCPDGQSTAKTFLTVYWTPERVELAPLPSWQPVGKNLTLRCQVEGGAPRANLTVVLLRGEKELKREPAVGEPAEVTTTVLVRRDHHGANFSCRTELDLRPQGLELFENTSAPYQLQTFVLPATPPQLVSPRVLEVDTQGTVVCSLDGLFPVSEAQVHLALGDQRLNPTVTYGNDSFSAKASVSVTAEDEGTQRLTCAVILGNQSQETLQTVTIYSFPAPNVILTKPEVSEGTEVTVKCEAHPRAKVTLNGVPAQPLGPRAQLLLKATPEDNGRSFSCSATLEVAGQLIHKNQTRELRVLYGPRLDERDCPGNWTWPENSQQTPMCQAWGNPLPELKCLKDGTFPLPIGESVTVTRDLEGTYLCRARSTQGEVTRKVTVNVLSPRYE
Chain of isolated K287C/K294C αL I-domain (V130-A338) expressed on K562 cells by the PDGF receptor transmembrane domain (human) (P20701 155-363 K312C/K319C limits assumed): as the sequence (P20701 155-363 L314C/K319C limits assumed) above, with K158C, C160L counted along it

| % wild-type binding (% of wild-type) [5] | % wild-type binding (% of wild-type) [6] | % wild-type binding (% of wild-type) [7] | % wild-type binding (% of wild-type) [8] | % wild-type binding (% of wild-type) [9] | % wild-type binding (% of wild-type) [10] | % wild-type binding (% of wild-type) [11] | Substance | other results |
| --- | --- | --- | --- | --- | --- | --- | --- | --- |
| 93.1 | 110 | 103 | 95.8 | 96.2 | 92.2 | 91 | mouse anti-human αL (CD11a) monoclonal antibody TS1/22 | mean fluorescent intensity [1]: 66.3; mean fluorescent intensity [2]: 84.6; mean fluorescent intensity [3]: 151; mean fluorescent intensity [4]: 104; mean fluorescent intensity [12]: 67.3; mean fluorescent intensity [13]: 205; mean fluorescent intensity [14]: 71.1 |
| 96.5 | 100 | – | – | – | – | – | monoclonal antibody CLBLFA-1/1 | – |
| – | – | – | – | – | – | – | monoclonal antibody CBRLFA-1/9 | % wild-type binding (% of wild-type) [15]: 84.7 |
| 89.2 | 95.9 | 91.4 | 84.9 | 88.2 | 91.7 | 78.6 | mouse anti-human αL (CD11a) monoclonal antibody TS2/6 | – |
| – | – | – | – | – | – | – | soluble ICAM-1-IgA chimera containing the 5 Ig domains of human ICAM-1 (from UniProt P05362 28-480) (Fc fusion) | mean fluorescent intensity [16]: 5.26; mean fluorescent intensity [17]: 41.3; mean fluorescent intensity [18]: 5.36; mean fluorescent intensity [19]: 4.32; mean fluorescent intensity [20]: 24.8; mean fluorescent intensity [21]: 4.89 |
| 95.2 | 97.2 | – | 95.3 | – | – | 91.7 | anti-β2 (CD18) monoclonal antibody CBRLFA-1/7 | – |
| 95.4 | 103 | 103 | 85.5 | 100 | 103 | 83.3 | mouse anti-human αL (CD11a) monoclonal antibody TS2/14 | – |
| 92.4 | 97.6 | 93.3 | 92.4 | 92.4 | 88.3 | 85.8 | monoclonal antibody BL5 | – |
| 87.3 | 106 | 99.3 | 88.7 | 104 | 93.7 | 102 | mouse anti-human αL (CD11a) monoclonal antibody TS1/12 | – |
| 97.4 | 85.7 | 98.3 | 89.4 | 86.4 | 92.3 | 95.3 | monoclonal antibody S6F1 | – |
| 97.4 | 106 | 87.9 | 99.8 | 87.3 | 108 | 95.7 | anti-β2 (CD18) monoclonal antibody TS1/18 | – |
| 102 | 93.9 | 95.9 | 93.7 | 99.6 | 95.5 | 83.6 | monoclonal antibody F8.8 | – |
| 92.6 | 101 | 95.8 | 92.6 | 95.4 | 106 | 82.1 | monoclonal antibody May.035 | – |
| 88.5 | 85.7 | – | 93.1 | – | – | 90.9 | monoclonal antibody 25-3-1 | – |
| 96 | 105 | – | 94.4 | – | – | 93.7 | mouse anti-human αL (CD11a) monoclonal antibody TS1/11 | – |
| – | – | – | – | – | – | – | monoclonal antibody CBRM1/32 | mean fluorescent intensity [22]: 115; mean fluorescent intensity [23]: 120; mean fluorescent intensity [24]: 81 |
| – | – | – | – | – | – | – | monoclonal antibody CBRM1/5 | mean fluorescent intensity [22]: 208; mean fluorescent intensity [23]: 25; mean fluorescent intensity [24]: 262 |
